{"source": "patent US8709811B2", "about": "“Materials and methods for synthesis of a flavor and aroma volatile in plants” (University of Florida Research Foundation, Inc., priority 2003, dated 2014)", "experiment_in_all_cases": "Alcohol dehydrogenase activity of E. coli expressed His-tagged LePEDH on phenylacetaldehyde and related substrates (Km)", "type_in_all_cases": "biochemical, tomato", "conditions_in_all_cases": "other: substrate specificity of LePEDH, His tag, E. coli BL21-AI", "key": {"O=C/C=C/c1ccccc1": {"system": "O=C/C=C/c1ccccc1", "method": "(§1) The 2-phenylethanol dehydrogenase coding region of the full-length cLET2M9 was cloned in vector pDEST17 with a His tag and transformed into E. coli BL21-AI cells for inducible expression. Alcohol dehydrogenase activities on phenylacetaldehyde and several related substrates were determined."}, "O=Cc1ccccc1": {"system": "O=Cc1ccccc1", "method": "as §1"}, "O=CCc1ccccc1": {"system": "O=CCc1ccccc1", "method": "as §1"}}, "data": [{"substance": "LePEDH (tomato 2-phenylethanol dehydrogenase, full-length cLET2M9) (Solanum lycopersicum)", "values": [{"measurement": "Km", "setting": "O=C/C=C/c1ccccc1", "value": 428.9, "unit": "µM"}, {"measurement": "Km", "setting": "O=Cc1ccccc1", "value": 240.1, "unit": "µM"}, {"measurement": "Km", "setting": "O=CCc1ccccc1", "value": 42.3, "unit": "µM"}]}]}
